Laboratory results from the supplement of paper PMC9428881.
± gives the standard error.

Assay: background-corrected fluorescence of 3'-dye-labeled ssDNA relative to brightest sequence (3'-GCGCG) (fraction); higher = brighter dye fluorescence (less quenching)
Outline: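 Fluorescence values are background-corrected using unlabeled oligos and expressed relative to the brightest sequence. The single-stranded DNA was made on glass slides by light-directed phosphoramidite synthesis, each of 1024 permuted pentamers ending beside a 3' Cy3 or Cy5 dye. Scans at 532 or 635 nm were taken before and after overnight ethylenediamine/ethanol deprotection, and each value averages 10 features per array and at least 3 syntheses.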

TTTTTTCATCAGCATGCGCATTTTTTTTTTTTTTTGGTAT [TATGG]
background-corrected fluorescence (dye: Cy3 (3' terminal)): 0.525 ± 0.017 | background-corrected fluorescence (dye: Cy5 (3' terminal)): 0.411 ± 0.025

TTTTTTCATCAGCATGCTCATTTTTTTTTTTTTTTGGTAG [GATGG]
background-corrected fluorescence (dye: Cy3 (3' terminal)): 0.541 ± 0.021 | background-corrected fluorescence (dye: Cy5 (3' terminal)): 0.431 ± 0.046

TTTTTTCATCAGCATGCTGATTTTTTTTTTTTTTTGGTAC [CATGG]
background-corrected fluorescence (dye: Cy3 (3' terminal)): 0.442 ± 0.016 | background-corrected fluorescence (dye: Cy5 (3' terminal)): 0.349 ± 0.036

TTTTTTCATCAGCATGCTGCTTTTTTTTTTTTTTTGGTAA [AATGG]
background-corrected fluorescence (dye: Cy3 (3' terminal)): 0.573 ± 0.022 | background-corrected fluorescence (dye: Cy5 (3' terminal)): 0.458 ± 0.031

TTTTTTCATCATCAGCAGCATTTTTTTTTTTTTTTGGGTT
background-corrected fluorescence (dye: Cy3 (3' terminal)): 0.598 ± 0.011 | background-corrected fluorescence (dye: Cy5 (3' terminal)): 0.489 ± 0.031

TTTTTTCATCATCAGCATCATTTTTTTTTTTTTTTGGGTG [GTGGG]
background-corrected fluorescence (dye: Cy3 (3' terminal)): 0.627 ± 0.025 | background-corrected fluorescence (dye: Cy5 (3' terminal)): 0.428 ± 0.024

TTTTTTCATCATCAGCATGATTTTTTTTTTTTTTTGGGTC [CTGGG]
background-corrected fluorescence (dye: Cy3 (3' terminal)): 0.511 ± 0.03 | background-corrected fluorescence (dye: Cy5 (3' terminal)): 0.377 ± 0.024

TTTTTTCATCATCAGCATGCTTTTTTTTTTTTTTTGGGTA [ATGGG]
background-corrected fluorescence (dye: Cy3 (3' terminal)): 0.614 ± 0.0069 | background-corrected fluorescence (dye: Cy5 (3' terminal)): 0.517 ± 0.03

TTTTTTCATCATCATCAGCATTTTTTTTTTTTTTTGGGGT
background-corrected fluorescence (dye: Cy3 (3' terminal)): 0.741 ± 0.023 | background-corrected fluorescence (dye: Cy5 (3' terminal)): 0.626 ± 0.053

TTTTTTCATCATCATCATCATTTTTTTTTTTTTTTGGGGG
background-corrected fluorescence (dye: Cy3 (3' terminal)): 0.709 ± 0.059 | background-corrected fluorescence (dye: Cy5 (3' terminal)): 0.635 ± 0.03

TTTTTTCATCATCATCATGATTTTTTTTTTTTTTTGGGGC [CGGGG]
background-corrected fluorescence (dye: Cy3 (3' terminal)): 0.631 ± 0.03 | background-corrected fluorescence (dye: Cy5 (3' terminal)): 0.532 ± 0.033

TTTTTTCATCATCATCATGCTTTTTTTTTTTTTTTGGGGA [AGGGG]
background-corrected fluorescence (dye: Cy3 (3' terminal)): 0.753 ± 0.014 | background-corrected fluorescence (dye: Cy5 (3' terminal)): 0.757 ± 0.038

TTTTTTCATCATCATGAGCATTTTTTTTTTTTTTTGGGCT [TCGGG]
background-corrected fluorescence (dye: Cy3 (3' terminal)): 0.527 ± 0.017 | background-corrected fluorescence (dye: Cy5 (3' terminal)): 0.442 ± 0.024

TTTTTTCATCATCATGATCATTTTTTTTTTTTTTTGGGCG [GCGGG]
background-corrected fluorescence (dye: Cy3 (3' terminal)): 0.69 ± 0.031 | background-corrected fluorescence (dye: Cy5 (3' terminal)): 0.521 ± 0.062

TTTTTTCATCATCATGATGATTTTTTTTTTTTTTTGGGCC [CCGGG]
background-corrected fluorescence (dye: Cy3 (3' terminal)): 0.517 ± 0.031 | background-corrected fluorescence (dye: Cy5 (3' terminal)): 0.367 ± 0.032

TTTTTTCATCATCATGATGCTTTTTTTTTTTTTTTGGGCA [ACGGG]
background-corrected fluorescence (dye: Cy3 (3' terminal)): 0.565 ± 0.022 | background-corrected fluorescence (dye: Cy5 (3' terminal)): 0.505 ± 0.024

TTTTTTCATCATCATGCGCATTTTTTTTTTTTTTTGGGAT [TAGGG]
background-corrected fluorescence (dye: Cy3 (3' terminal)): 0.617 ± 0.027 | background-corrected fluorescence (dye: Cy5 (3' terminal)): 0.506 ± 0.024

TTTTTTCATCATCATGCTCATTTTTTTTTTTTTTTGGGAG [GAGGG]
background-corrected fluorescence (dye: Cy3 (3' terminal)): 0.614 ± 0.037 | background-corrected fluorescence (dye: Cy5 (3' terminal)): 0.478 ± 0.026

TTTTTTCATCATCATGCTGATTTTTTTTTTTTTTTGGGAC [CAGGG]
background-corrected fluorescence (dye: Cy3 (3' terminal)): 0.536 ± 0.029 | background-corrected fluorescence (dye: Cy5 (3' terminal)): 0.401 ± 0.025

TTTTTTCATCATCATGCTGCTTTTTTTTTTTTTTTGGGAA [AAGGG]
background-corrected fluorescence (dye: Cy3 (3' terminal)): 0.649 ± 0.032 | background-corrected fluorescence (dye: Cy5 (3' terminal)): 0.596 ± 0.068

TTTTTTCATCATGAGCAGCATTTTTTTTTTTTTTTGGCTT [TTCGG]
background-corrected fluorescence (dye: Cy3 (3' terminal)): 0.558 ± 0.029 | background-corrected fluorescence (dye: Cy5 (3' terminal)): 0.405 ± 0.023

TTTTTTCATCATGAGCATCATTTTTTTTTTTTTTTGGCTG [GTCGG]
background-corrected fluorescence (dye: Cy3 (3' terminal)): 0.469 ± 0.016 | background-corrected fluorescence (dye: Cy5 (3' terminal)): 0.364 ± 0.018

TTTTTTCATCATGAGCATGATTTTTTTTTTTTTTTGGCTC [CTCGG]
background-corrected fluorescence (dye: Cy3 (3' terminal)): 0.425 ± 0.028 | background-corrected fluorescence (dye: Cy5 (3' terminal)): 0.337 ± 0.05

TTTTTTCATCATGAGCATGCTTTTTTTTTTTTTTTGGCTA [ATCGG]
background-corrected fluorescence (dye: Cy3 (3' terminal)): 0.483 ± 0.016 | background-corrected fluorescence (dye: Cy5 (3' terminal)): 0.42 ± 0.028

TTTTTTCATCATGATCAGCATTTTTTTTTTTTTTTGGCGT [TGCGG]
background-corrected fluorescence (dye: Cy3 (3' terminal)): 0.643 ± 0.035 | background-corrected fluorescence (dye: Cy5 (3' terminal)): 0.558 ± 0.057

TTTTTTCATCATGATCATCATTTTTTTTTTTTTTTGGCGG
background-corrected fluorescence (dye: Cy3 (3' terminal)): 0.649 ± 0.014 | background-corrected fluorescence (dye: Cy5 (3' terminal)): 0.604 ± 0.054

TTTTTTCATCATGATCATGATTTTTTTTTTTTTTTGGCGC [CGCGG]
background-corrected fluorescence (dye: Cy3 (3' terminal)): 0.627 ± 0.028 | background-corrected fluorescence (dye: Cy5 (3' terminal)): 0.551 ± 0.064

TTTTTTCATCATGATCATGCTTTTTTTTTTTTTTTGGCGA [AGCGG]
background-corrected fluorescence (dye: Cy3 (3' terminal)): 0.714 ± 0.035 | background-corrected fluorescence (dye: Cy5 (3' terminal)): 0.618 ± 0.07

TTTTTTCATCATGATGAGCATTTTTTTTTTTTTTTGGCCT [TCCGG]
background-corrected fluorescence (dye: Cy3 (3' terminal)): 0.4958 ± 0.0048 | background-corrected fluorescence (dye: Cy5 (3' terminal)): 0.386 ± 0.035

TTTTTTCATCATGATGATCATTTTTTTTTTTTTTTGGCCG [GCCGG]
background-corrected fluorescence (dye: Cy3 (3' terminal)): 0.597 ± 0.02 | background-corrected fluorescence (dye: Cy5 (3' terminal)): 0.449 ± 0.043

TTTTTTCATCATGATGATGATTTTTTTTTTTTTTTGGCCC [CCCGG]
background-corrected fluorescence (dye: Cy3 (3' terminal)): 0.387 ± 0.028 | background-corrected fluorescence (dye: Cy5 (3' terminal)): 0.312 ± 0.028

TTTTTTCATCATGATGATGCTTTTTTTTTTTTTTTGGCCA [ACCGG]
background-corrected fluorescence (dye: Cy3 (3' terminal)): 0.518 ± 0.025 | background-corrected fluorescence (dye: Cy5 (3' terminal)): 0.425 ± 0.025

TTTTTTCATCATGATGCGCATTTTTTTTTTTTTTTGGCAT [TACGG]
background-corrected fluorescence (dye: Cy3 (3' terminal)): 0.603 ± 0.011 | background-corrected fluorescence (dye: Cy5 (3' terminal)): 0.406 ± 0.025

TTTTTTCATCATGATGCTCATTTTTTTTTTTTTTTGGCAG [GACGG]
background-corrected fluorescence (dye: Cy3 (3' terminal)): 0.527 ± 0.028 | background-corrected fluorescence (dye: Cy5 (3' terminal)): 0.426 ± 0.017

TTTTTTCATCATGATGCTGATTTTTTTTTTTTTTTGGCAC [CACGG]
background-corrected fluorescence (dye: Cy3 (3' terminal)): 0.436 ± 0.03 | background-corrected fluorescence (dye: Cy5 (3' terminal)): 0.336 ± 0.03

TTTTTTCATCATGATGCTGCTTTTTTTTTTTTTTTGGCAA [AACGG]
background-corrected fluorescence (dye: Cy3 (3' terminal)): 0.5847 ± 0.005 | background-corrected fluorescence (dye: Cy5 (3' terminal)): 0.504 ± 0.041

TTTTTTCATCATGCGCAGCATTTTTTTTTTTTTTTGGATT [TTAGG]
background-corrected fluorescence (dye: Cy3 (3' terminal)): 0.584 ± 0.031 | background-corrected fluorescence (dye: Cy5 (3' terminal)): 0.41 ± 0.061

TTTTTTCATCATGCGCATCATTTTTTTTTTTTTTTGGATG [GTAGG]
background-corrected fluorescence (dye: Cy3 (3' terminal)): 0.533 ± 0.031 | background-corrected fluorescence (dye: Cy5 (3' terminal)): 0.388 ± 0.026

TTTTTTCATCATGCGCATGATTTTTTTTTTTTTTTGGATC [CTAGG]
background-corrected fluorescence (dye: Cy3 (3' terminal)): 0.445 ± 0.019 | background-corrected fluorescence (dye: Cy5 (3' terminal)): 0.35 ± 0.055

TTTTTTCATCATGCGCATGCTTTTTTTTTTTTTTTGGATA [ATAGG]
background-corrected fluorescence (dye: Cy3 (3' terminal)): 0.582 ± 0.026 | background-corrected fluorescence (dye: Cy5 (3' terminal)): 0.479 ± 0.045

TTTTTTCATCATGCTCAGCATTTTTTTTTTTTTTTGGAGT [TGAGG]
background-corrected fluorescence (dye: Cy3 (3' terminal)): 0.653 ± 0.017 | background-corrected fluorescence (dye: Cy5 (3' terminal)): 0.537 ± 0.048

TTTTTTCATCATGCTCATCATTTTTTTTTTTTTTTGGAGG
background-corrected fluorescence (dye: Cy3 (3' terminal)): 0.689 ± 0.0083 | background-corrected fluorescence (dye: Cy5 (3' terminal)): 0.534 ± 0.029

TTTTTTCATCATGCTCATGATTTTTTTTTTTTTTTGGAGC [CGAGG]
background-corrected fluorescence (dye: Cy3 (3' terminal)): 0.549 ± 0.026 | background-corrected fluorescence (dye: Cy5 (3' terminal)): 0.439 ± 0.029

TTTTTTCATCATGCTCATGCTTTTTTTTTTTTTTTGGAGA [AGAGG]
background-corrected fluorescence (dye: Cy3 (3' terminal)): 0.726 ± 0.026 | background-corrected fluorescence (dye: Cy5 (3' terminal)): 0.594 ± 0.04

TTTTTTCATCATGCTGAGCATTTTTTTTTTTTTTTGGACT [TCAGG]
background-corrected fluorescence (dye: Cy3 (3' terminal)): 0.508 ± 0.033 | background-corrected fluorescence (dye: Cy5 (3' terminal)): 0.412 ± 0.04

TTTTTTCATCATGCTGATCATTTTTTTTTTTTTTTGGACG [GCAGG]
background-corrected fluorescence (dye: Cy3 (3' terminal)): 0.567 ± 0.016 | background-corrected fluorescence (dye: Cy5 (3' terminal)): 0.455 ± 0.019

TTTTTTCATCATGCTGATGATTTTTTTTTTTTTTTGGACC [CCAGG]
background-corrected fluorescence (dye: Cy3 (3' terminal)): 0.446 ± 0.022 | background-corrected fluorescence (dye: Cy5 (3' terminal)): 0.317 ± 0.023

TTTTTTCATCATGCTGATGCTTTTTTTTTTTTTTTGGACA [ACAGG]
background-corrected fluorescence (dye: Cy3 (3' terminal)): 0.602 ± 0.022 | background-corrected fluorescence (dye: Cy5 (3' terminal)): 0.435 ± 0.053

TTTTTTCATCATGCTGCGCATTTTTTTTTTTTTTTGGAAT [TAAGG]
background-corrected fluorescence (dye: Cy3 (3' terminal)): 0.594 ± 0.033 | background-corrected fluorescence (dye: Cy5 (3' terminal)): 0.453 ± 0.043

TTTTTTCATCATGCTGCTCATTTTTTTTTTTTTTTGGAAG [GAAGG]
background-corrected fluorescence (dye: Cy3 (3' terminal)): 0.593 ± 0.033 | background-corrected fluorescence (dye: Cy5 (3' terminal)): 0.445 ± 0.03

TTTTTTCATCATGCTGCTGATTTTTTTTTTTTTTTGGAAC [CAAGG]
background-corrected fluorescence (dye: Cy3 (3' terminal)): 0.463 ± 0.028 | background-corrected fluorescence (dye: Cy5 (3' terminal)): 0.352 ± 0.019
